Laboratory results from PMC10381965.

Molecular target: CBF1;CCAN (CENP-LN, CENP-OPQU+, CENP-HIK-TW, CENP-C) (Saccharomyces cerevisiae;Saccharomyces …, UniProt P17106;P38907;P38265;Q06675;Q02732;P53298;P38313;Q12493;Q06162;Q12262;Q12748;P47 …, |)
Experiment: cryo-EM structure (3.4 Å); free C0N3 DNA without octamer; topological entrapment, 25 bp contacted; Binding buffer for IK assembly not given in the material; proteins purified in 20 mM Hepes pH 8.0, 300 mM NaCl, 0.5 mM TCEP

B1: C0N3 153 bp (chimeric CEN3/W601) (dsDNA)
DNA 1: ATAAGTCACATGGTGCCGAGGCCGCTCAATTGGTCGTAGACAGCTCTAGCACCGCTTAAACGCACGTACGCGCTGTCCCCCGCGTTTTAATATTAGTGTATTTGATTTCCGAAAGTTAAAAAAGAAATAGTAAGAAATATATATTTCATTGAA
DNA 2: TTCAATGAAATATATATTTCTTACTATTTCTTTTTTAACTTTCGGAAATCAAATACACTAATATTAAAACGCGGGGGACAGCGCGTACGTGCGTTTAAGCGGTGCTAGAGCTGTCTACGACCAATTGAGCGGCCTCGGCACCATGTGACTTAT
B1: binds.
